According to PMC11040149:

Target: RNA ligase from Palaeococcus pacificus (PpaRnl), wild-type (Palaeococcus pacificus)
Assay: SEC

stoichiometry N: 2
Substance: RNA ligase from Palaeococcus pacificus (PpaRnl), wild-type (enzyme)
